Assay results taken from paper PMC8640741.

Molecular target: SARS-CoV-2 spike (S) protein in the postfusion state, in situ on the viral membrane (SARS-CoV-2)
Experiment: cryo-EM structure

With “SARS-CoV-2 spike (S) protein in the postfusion state, in situ on the viral membrane (natural protein)” the stoichiometry N was 3.
